Measured values from patent US20240350597A1, “PROTEASE INHIBITORS” (University College Dublin, priority 2023, published 2024).
Entries after “also recorded” stand apart in the source; their conditions may differ. Where two headings read alike, the source gives them in different places.

B1: B3-TMP: SerpinB3 variant with RCL residues 350 to 354 (P4 to P1′) replaced by IQFRV to inhibit TMPRSS2; SEQ ID No. 6 (protein)
chain: MNSLSEANTKFMFDLFQQFRKSKENNIFYSPISITSALGMVLLGAKDNTAQQIKKVLHFDQVTENTTGKAATYHVDRSGNVHHQFQKLLTEFNKSTDAYELKIANKLFGEKTYLFLQEYLDAIKKFYQTSVESVDFANAPEESRKKINSWVESQTNEKIKNLIPEGNIGSNTTLVLVNAIYFKGQWEKKFNKEDTKEEKFWPNKNTYKSIQMMRQYTSFHFASLEDVQAKVLEIPYKGKDLSMIVLLPNEIDGLQKLEEKLTAEKLMEWTSLQNMRETRVDLHLPRFKVEESYDLKDTLRTMGMVDIFNGDADLSGMTGSRGLVLSGVLHKAFVEVTEEGAEAAAATAVIQFRVSPTSTNEEFHCNHPFLFFIRQNKTNSILFYGRFSSP
B2: B3-WT: Wild type recombinant SerpinB3 (SCCA-1), 44.5 kDa cross-class inhibitor of cysteine proteases including CatL; SEQ ID No. 5 (protein, listed as Homo sapiens)
chain: MNSLSEANTKFMFDLFQQFRKSKENNIFYSPISITSALGMVLLGAKDNTAQQIKKVLHFDQVTENTTGKAATYHVDRSGNVHHQFQKLLTEFNKSTDAYELKIANKLFGEKTYLFLQEYLDAIKKFYQTSVESVDFANAPEESRKKINSWVESQTNEKIKNLIPEGNIGSNTTLVLVNAIYFKGQWEKKFNKEDTKEEKFWPNKNTYKSIQMMRQYTSFHFASLEDVQAKVLEIPYKGKDLSMIVLLPNEIDGLQKLEEKLTAEKLMEWTSLQNMRETRVDLHLPRFKVEESYDLKDTLRTMGMVDIFNGDADLSGMTGSRGLVLSGVLHKAFVEVTEEGAEAAAATAVVGFGSSPTSTNEEFHCNHPFLFFIRQNKTNSILFYGRFSSP

Columns and labels:
[1] = tested on: SARS-CoV-2 Spike pseudoparticles; type: cell-based
Omicron BA.5 SARS-CoV-2 = type: cell-based
TMPRSS2 [2] = molecular target: T1, TMPRSS2 (Homo sapiens, UniProt O15393); type: biochemical; design: purchased Cusabio Technology
T1 sequence (O15393 whole entry): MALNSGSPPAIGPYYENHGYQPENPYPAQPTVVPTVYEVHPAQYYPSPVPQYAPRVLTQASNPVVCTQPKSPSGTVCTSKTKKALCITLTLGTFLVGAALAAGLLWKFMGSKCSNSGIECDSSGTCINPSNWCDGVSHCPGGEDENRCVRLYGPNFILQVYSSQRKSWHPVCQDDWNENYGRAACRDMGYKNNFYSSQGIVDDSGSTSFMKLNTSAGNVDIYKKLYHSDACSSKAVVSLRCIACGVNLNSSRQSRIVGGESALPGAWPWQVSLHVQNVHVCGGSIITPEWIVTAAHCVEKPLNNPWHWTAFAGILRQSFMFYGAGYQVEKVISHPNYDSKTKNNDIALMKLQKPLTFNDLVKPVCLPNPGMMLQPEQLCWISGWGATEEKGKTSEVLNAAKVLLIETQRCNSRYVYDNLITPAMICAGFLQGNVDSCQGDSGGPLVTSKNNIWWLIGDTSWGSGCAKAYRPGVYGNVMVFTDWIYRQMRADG

TMPRSS2 [3] = molecular target: T1, TMPRSS2; experiment: Kinetic analysis of TMPRSS2 inhibition under pseudo first-order conditions; type: biochemical; design: purchased Cusabio Technology; details: room temperature, TMPRSS2 0.1 μM
Description: For kinetic analysis of TMPRSS2 inhibition, second order inhibition rate constants were determined under pseudo first-order conditions using a range of serpin concentrations, and with TMPRSS2 buffer and substrate detailed above. Reactions were performed at room temperature and residual activity was determined at intervals over a 10 min incubation with a molar excess of serpin over protease. Concentration ranges were 0.12 to 0.44 μM for B3-TMP and 1.0 to 4 μM for A1AT. The apparent first order rate constant kobs for each concentration was calculated from the slope of the natural log of residual activity over time (−kobs). These values were plotted against inhibitor concentration and linear regression analysis of this plot gave the second order inhibition rate constant k2, with standard error determined.

Cathepsin L (CatL) = molecular target: T2, Cathepsin L (CatL) (Homo sapiens, UniProt P07711); experiment: Protease inhibition assay, fluorogenic substrate cleavage, cathepsin L; type: biochemical; details: excess of serpin over protease, 2 min incubation, substrate Z-FR-AMC
T2 construct: gift: Dr Matej Vizovišek, Jozef Stefan Institute, Slovenia
T2 sequence (P07711 114-333): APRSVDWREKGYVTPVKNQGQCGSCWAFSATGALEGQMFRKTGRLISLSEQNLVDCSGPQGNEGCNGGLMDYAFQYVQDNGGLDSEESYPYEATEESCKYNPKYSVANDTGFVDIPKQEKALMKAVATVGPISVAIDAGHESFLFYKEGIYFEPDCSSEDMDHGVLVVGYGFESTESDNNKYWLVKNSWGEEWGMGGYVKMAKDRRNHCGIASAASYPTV
Description: By monitoring the linear rate of cleavage of fluorogenic substrates, protease specificity of purified proteins was assessed. CatL was gifted by Dr Matej Vizovišek, Jozef Stefan Institute, Slovenia. TMPRSS2 was obtained from Cusabio Technology and furin from BioLegend.
Proteases were incubated with a 1:5 molar excess of serpin and residual activity was determined by cleavage of fluorescent substrates. All assays were carried out at room temperature in 96-well plates in a total volume of 100 μL. Residual proteolytic activity was measured using a SpectraMax M3 Microplate Reader (Molecular Devices, Inc), using the appropriate buffer and synthetic fluorogenic peptide substrate: Cathepsin L, Z-FR-AMC (10 μM), 50 mM Na-Acetate, 100 mM NaCl, 1 mM EDTA, pH 5.5; Chymotrypsin, Z-AAPF-AMC (5 μM), PBS, 1 mg/ml BSA; Elastase, Met-O-Suc-AAPV-AMC (10 μM), 50 mM Tris, 120 mM NaCl, pH 8.0, 1 mg/ml BSA; Furin, Boc-RVRR-AMC (50 μM) 20 mM Tris, 1 mM CaCl2), 0.5% Brij-35, pH 9; TMPRSS2, Boc-QAR-AMC (80 μM), PBS; Trypsin, Z-FR-AMC (10 μM), 50 mM Tris, 0.2 mM DTT, 1 mg/ml BSA. The excitation and emission wavelengths used were 380 nm and 460 nm respectively. All assays were performed in triplicate.

Molecule	inhibition of pseudoparticle entry (in words) ([1]; 6.25 μM to 50 μM, A549-ACE2-TMPRSS2 cells)	inhibition of pseudoparticle entry ([1]; 12.5 μM, A549-ACE2-TMPRSS2 cells) [%]	inhibition of pseudoparticle entry ([1]; 50 µM) [%]	inhibition of SARS-CoV-2 Omicron BA.5 infection (in words) (Omicron BA.5 SARS-CoV-2)	selectivity for TMPRSS2 versus elastase, trypsin, chymotrypsin (in words) (TMPRSS2 [2])	second order inhibition rate constant k2 of TMPRSS2 inhibition (TMPRSS2 [3])	CatL inhibition (Cathepsin L (CatL)) [%]
B1	reduce SARS-CoV-2 (D614G) pseudoparticle entry	70	90	greater inhibitor for both viral strains than WT-SerpinB3; also recorded: inhibit Omicron BA.5 infection to a greater extent than the B3-WT	better selectivity for TMPRSS2 than A1AT	(9±1.1)×10^3 M^−1 s^−1	81
B2				reductions in SARS-CoV-2 infection			95
